US10280205B2, “Method for treating cancer with an activated T lymphocyte that selectively recognizes a cancer cell consisting of specific peptide” (immatics biotechnologies GmbH, priority 2015, dated 2019)

biological target: HLA-A*02:01 (Homo sapiens, UniProt P04439, D140Y/D185E/D98H/E176V/E277Q/G131W/G231S/I119V/I121R/I166T/I218V/L300P/L318F/N151K/N90K/P208A/P217A/Q86G/Q94H/R138H/R169H/T345S); experiment: MHC binding assay: UV-ligand exchange with beta2m ELISA (exchange yield); conditions: binding to HLA-A*02:01, β2m ELISA
In short: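 Peptide–HLA-A*02:01 complexes formed by UV-induced exchange of a photocleavable ligand for the test peptide. Exchange products diluted 100-fold and captured on streptavidin-coated plates. Stabilized complexes detected with HRP anti-β2m (1 h, 37° C.) and TMB, A450; exchange yield reported.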

Substance	Peptide exchange (MHC class I binding score, peptide exchange yield)
400 (SLLTEQDLWTV; listed as Homo sapiens) [compound 400]	“++” (≥20% = ++)
196 (YLYSVEIKL; listed as Homo sapiens) [compound 196]	“++++” (≥75% = ++++)
266 (KITDTLIHL; listed as Homo sapiens) [compound 266]	“+++” (≥50 = +++)
345 (VIWKALIHL; listed as Homo sapiens) [compound 345]	“+++” (≥50 = +++)
498 (KLWTGGLDNTV; listed as Homo sapiens) [compound 498]	“+++” (≥50 = +++)
242 (AIAYILQGV; listed as Homo sapiens) [compound 242]	“++” (≥20% = ++)
528 (SVAEGRALMSV; listed as Homo sapiens) [compound 528]	“+++” (≥50 = +++)
253 (GLDAATATV; listed as Homo sapiens) [compound 253]	“++” (≥20% = ++)
219 (KLSDIGITV; listed as Homo sapiens) [compound 219]	“+++” (≥50 = +++)
500 (SLMEDQVLQL; listed as Homo sapiens) [compound 500]	“+++” (≥50 = +++)
233 (VLSETLYEL; listed as Homo sapiens) [compound 233]	“++” (≥20% = ++)
72 (SLLELDGINL; listed as Homo sapiens) [compound 72]	“+++” (≥50 = +++)
40 (TLLVKVFSV; listed as Homo sapiens) [compound 40]	“+++” (≥50 = +++)
519 (GLLHLTLLL; listed as Homo sapiens) [compound 519]	“+++” (≥50 = +++)
530 (VMYADIGGMDI; listed as Homo sapiens) [compound 530]	“+++” (≥50 = +++)
258 (ELAERVPAI; listed as Homo sapiens) [compound 258]	“++” (≥20% = ++)
595 (VLLSIYPRV; listed as Homo sapiens) [compound 595]	“+++” (≥50 = +++)
211 (LLWPGAALL; listed as Homo sapiens) [compound 211]	“++” (≥20% = ++)
340 (ALLSMTFPL; listed as Homo sapiens) [compound 340]	“++++” (≥75% = ++++)
20 (RMIEYFIDV; listed as Homo sapiens) [compound 20]	“+++” (≥50 = +++)
518 (KLNAEVACV; listed as Homo sapiens) [compound 518]	“+++” (≥50 = +++)
403 (KLYDRILRV; listed as Homo sapiens) [compound 403]	“++” (≥20% = ++)
522 (TLWYRSPEV; listed as Homo sapiens) [compound 522]	“++” (≥20% = ++)

Substance	Peptide exchange (MHC class I binding score, peptide exchange yield)
297 (VLADIELAQA; listed as Homo sapiens) [compound 297]	“+++” (≥50 = +++)
225 (SLLKVLPAL; listed as Homo sapiens) [compound 225]	“+++” (≥50 = +++)
587 (VMNDRLYAI; listed as Homo sapiens) [compound 587]	“+++” (≥50 = +++)
453 (KLLEATSAV; listed as Homo sapiens) [compound 453]	“++” (≥20% = ++)
594 (IMLKGDNITL; listed as Homo sapiens) [compound 594]	“+++” (≥50 = +++)
18 (YLVAKLVEV; listed as Homo sapiens) [compound 18]	“++” (≥20% = ++)
220 (LLQKFVPEI; listed as Homo sapiens) [compound 220]	“++” (≥20% = ++)
264 (SLQEQLHSV; listed as Homo sapiens) [compound 264]	“+++” (≥50 = +++)
486 (AVMESIQGV; listed as Homo sapiens) [compound 486]	“+++” (≥50 = +++)
68 (SLMELPRGLFL; listed as Homo sapiens) [compound 68]	“++++” (≥75% = ++++)
555 (YVLEGLKSV; listed as Homo sapiens) [compound 555]	“+++” (≥50 = +++)
64 (YAAPGGLIGV; listed as Homo sapiens) [compound 64]	“++” (≥20% = ++)
185 (FLIDDKGYTL; listed as Homo sapiens) [compound 185]	“++” (≥20% = ++)
563 (WLLPYNGVTV; listed as Homo sapiens) [compound 563]	“+++” (≥50 = +++)
484 (SLIEKVTQL; listed as Homo sapiens) [compound 484]	“+++” (≥50 = +++)
61 (FLQGYQLHL; listed as Homo sapiens) [compound 61]	“++++” (≥75% = ++++)
271 (LVYPLELYPA; listed as Homo sapiens) [compound 271]	“+++” (≥50 = +++)
70 (GLLDYPVGV; listed as Homo sapiens) [compound 70]	“+++” (≥50 = +++)
208 (KISPVTFSV; listed as Homo sapiens) [compound 208]	“+++” (≥50 = +++)
430 (HLYSSIEHLTT; listed as Homo sapiens) [compound 430]	“+++” (≥50 = +++)
609 (ALWKQLLEL; listed as Homo sapiens) [compound 609]	“+++” (≥50 = +++)
137 (TLVLTLPTV; listed as Homo sapiens) [compound 137]	“++++” (≥75% = ++++)
328 (ALNDQVFEI; listed as Homo sapiens) [compound 328]	“+++” (≥50 = +++)

Substance	Peptide exchange (MHC class I binding score, peptide exchange yield)
217 (ALIHPVSTV; listed as Homo sapiens) [compound 217]	“++” (≥20% = ++)
550 (FLYDEIEAEVNL; listed as Homo sapiens) [compound 550]	“+++” (≥50 = +++)
116 (YHIDEEVGF; listed as Homo sapiens) [compound 116]	“+” (≥10% = +)
521 (MLLTKLPTI; listed as Homo sapiens) [compound 521]	“+++” (≥50 = +++)
122 (FLLAEDDIYL; listed as Homo sapiens) [compound 122]	“+++” (≥50 = +++)
378 (ALGYFVPYV; listed as Homo sapiens) [compound 378]	“+++” (≥50 = +++)
463 (SLVESHLSDQLTL; listed as Homo sapiens) [compound 463]	“+++” (≥50 = +++)
182 (MLLEAPGIFL; listed as Homo sapiens) [compound 182]	“+++” (≥50 = +++)
504 (GLSDGNPSL; listed as Homo sapiens) [compound 504]	“++” (≥20% = ++)
215 (QLINHLHAV; listed as Homo sapiens) [compound 215]	“+++” (≥50 = +++)
144 (YIMEPSIFNTL; listed as Homo sapiens) [compound 144]	“+++” (≥50 = +++)
33 (VLLSLLEKV; listed as Homo sapiens) [compound 33]	“++” (≥20% = ++)
209 (KLIESKHEV; listed as Homo sapiens) [compound 209]	“++” (≥20% = ++)
223 (ALLENIALYL; listed as Homo sapiens) [compound 223]	“+++” (≥50 = +++)
618 (VLFDSESIGIYV; listed as Homo sapiens) [compound 618]	“+++” (≥50 = +++)
170 (RLQETLSAA; listed as Homo sapiens) [compound 170]	“+++” (≥50 = +++)
324 (FLYDEIEAEV; listed as Homo sapiens) [compound 324]	“+++” (≥50 = +++)
228 (AMQEYIAVV; listed as Homo sapiens) [compound 228]	“++” (≥20% = ++)
13 (YLMDESLNL; listed as Homo sapiens) [compound 13]	“+++” (≥50 = +++)
190 (FLSSLTETI; listed as Homo sapiens) [compound 190]	“+++” (≥50 = +++)
567 (SLLPLDDIVRV; listed as Homo sapiens) [compound 567]	“+++” (≥50 = +++)
